Results on one substance are retold here after patent publication US9579382B2.

This assay addresses human CD20 (human) (UniProt P11836).

rituximab (antibody): the % of cytotoxicity (dead CFSE+ 7-AAD+ Raji target cells), ADCC with PBMC effector cells at 25:1 for 6 hours is 25%.
